Measurements: the nanobody polyreactivity screen of Harvey et al. (2022)

Experiment: yeast display, Sf9 membrane polyspecificity reagent, FACS + sequencing; frameworks hold sequencing errors
Summary of the method: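 Galactose-induced (36–48 hours) yeast carrying a synthetic nanobody display library were exposed to 10% biotinylated, detergent-solubilized Sf9 membrane reagent at 4 °C for 1 hour. FACS followed streptavidin microbead enrichment, using low and high (top ~1%) gates for expression (anti-HA) and reagent binding (streptavidin). Colony PCR, MiSeq 2 × 250 sequencing and CDR-length filtering followed. Labels for polyreactivity reflect the gate of origin.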

Sequence	polyreactivity (PSR sort gate)
QVQLVESGGGLVQAGGSLRLSCAASGLTFPYNVMGWYRQAPGKERELVASITSVGTTDYADSVKGRFTISRDNAKNTVYLQMNSLNPEDTAVYYCAADVTLFYWWYGKEDYDYWGQGTEVTVSS	low polyreactivity
QVQLVESGGGLVQAGGSLRLSCAASGLTFQEYAMGWYRQAPGKERELVAAISWSGGSTYYADSVKGRFTISRDNAKNTVYLQMNSLKPEDTAVYYCAAEAYEEFITGWYAYDYWGQGTQVTVSS	high polyreactivity
QVQLVESGGGLVQAGGSLRLSCAASGLTFQGYAMGWYRQAPGKERELVAAISSSGDITYYADSVKGRFTISRDNAKNTVYLQMNSLKPEDTAVYYCAAEAEYYVYGTYDYWGQGTQVTVSS	high polyreactivity
QVQLVESGGGLVQAGGSLRLSCAASGLTFQKNVMGWYRQAPGKERELVAAIRASSSSTYYADSVKGRFTISRDNAKNTVYLQMNSLKPEDTAVYYCAAPRLIKYDYWGQGTQVTVSS	high polyreactivity
QVQLVESGGGLVQAGGSLRLSCAASGLTFQPNVMGWYRQATGKERELVAAISVRTTRTYYADSVKGRFTISRDNAKNTVYLQMNSLKPEDTAVYYCNTDISRNYYWALYGYWGQGTQVTVSS	low polyreactivity
QVQLVESGGGLVQAGGSLRLSCAASGLTFQWYTMGWYRQAPGKERELVAAISSRGGSTYYADSVKGRFTISRDNAKNTVYLQMNSLKPEDTAVYYCAVRLRWYFFLMDYWGQGTQVTVSS	high polyreactivity
QVQLVESGGGLVQAGGSLRLSCAASGLTFQYYVMGSYRQAPGKERELVAAISSGGSTYYADSVKGRFTISRDNAKNTVYLQMNSLKPEDTAVYYCAAEAGYAYPLWPYTFPFEYWGQGTQVTVSS	low polyreactivity
QVQLVESGGGLVQAGGSLRLSCAASGLTFRKYAMGWYRPAPGKEREWVAAITRGGSTNYADSVKGRFTISRDNAKNTVYLQMNSLKPEDTAVYYCAAQYTYRFPYPGYATTHDYWGQGTQVTVSS	high polyreactivity
QVQLVESGGGLVQAGGSLRLSCAASGLTFRPYAMGWYRPAPGKERELVAAISTTGGSTYYADSVKGRFTISRDNAKNTVYLQMNSLKPEDTAVYYCAAPTSQRRVLSYRPYGYWGQGTQVTVSS	high polyreactivity
QVQLVESGGGLVQAGGSLRLSCAASGLTFRQYAMGWYRQAPGKERELVAAIDTGASTNYADSVKGRFTISRDNAKNTVYLQMNSLKPEDTAGYYCNAELWYGPDELTGDYWGQGTQVTVSS	low polyreactivity
QVQLVESGGGLVQAGGSLRLSCAASGLTFRWYAMGWYRQAPGKERELVAAISSTGRTNYADSVKGRFTISRDNAKNTVYLQMNSLKPEDTAVYYCNKTQEFVHKYELDYWGQGTQVTVSS	low polyreactivity
QVQLVESGGGLVQAGGSLRLSCAASGLTFRYYSMGWYRQAPGKERELVAAISRRSGSTYYADSVKGRFTISGDNAKNTVYLQMNSLKPEDTAVYYCNADSTITGNLKRYDYWGQGTQVTVSS	high polyreactivity
QVQLVESGGGLVQAGGSLRLSCAASGLTFSFNAMGWYRQAPGKEREFVAAISWSGGSTYYADSVKGRFTISRDNAKITVYLQMNSLKPEDTAVYYCAAESRITRYRHTRYYYWGQGTQVTVSS	high polyreactivity
QVQLVESGGGLVQAGGSLRLSCAASGLTFSLNAMGWYRPAPGKERELVAAIRGSGGSTYYADSVKGRFTISRDNAKNTVYLQMNSLKPEDTAVYYCAASPKRVLRESGVYWGQGTQVTVSS	high polyreactivity
QVQLVESGGGLVQAGGSLRLSCAASGLTFSLNAMGWYRQAPGKERELVAAISFSGGSTYYADSVKGRFTISRDNAKNTVYLQMNSLKPEDTAVYYCAVRKRVGRGRYGYWGQGTQVTVSS	high polyreactivity
QVQLVESGGGLVQAGGSLRLSCAASGLTFSLYAMGWYRQAHGKERELVAAISWTGGSTYYADSVKGRFTISRDNAKNTVYLQMNSLKPEDTAVYYCNARYTLFARYGYDYWGQGTQVTVSS	low polyreactivity
QVQLVESGGGLVQAGGSLRLSCAASGLTFSRNAMGWYRQAPGKEWELVAAISGSGGSTYYADSVKGRFTISRDNAKYTVYLQMNSLKPEDTAVYYCAKVSRSKQKFDYWGQGTQVTVSS	high polyreactivity
QVQLVESGGGLVQAGGSLRLSCAASGLTFSRYAMGWYRQAPGKERELVAAITSIGGSTYYADSVKGRFTISRDNAKNTVYLQMNSLKPEDTAVYYCRAFFRRDYWGQGTQVNVSS	high polyreactivity
QVQLVESGGGLVQAGGSLRLSCAASGLTFSSNAMGWSRQAPGKERELVAVITNGGSTNYADSVKGRFTISRDNAKNTVYLQMNSLKPEDTAVYYCAKDGGPAQDIGMDYWGQGTQVTVSS	low polyreactivity
QVQLVESGGGLVQAGGSLRLSCAASGLTFSVYAMGWSRQAPGKERELVASITRSGGSTYYADSVKGRFTISRDNAKNTVYLQMNSLKPEDTADYYCNADKYYGFDYWGQGTQVTVSS	high polyreactivity
QVQLVESGGGLVQAGGSLRLSCAASGLTFSYYAMGWYRQAPGKERELVAAIDYSGGTTYADSVKGRFTISRDNAKNTVYLQMNSLKPEDTAVYYCAREWYQYSPYHRFDYWGQGTQVTVSS	high polyreactivity

Sequence	polyreactivity (PSR sort gate)
QVQLVESGGGLVQAGGSLRLSCAASGLTFSYYTMGWYRPAPGKERELVAAITSSSGRTYYADSVKGRFSISRDNAKNTVYLQLNSLKPEDTAVYYCAADRWYREYDYWGLGTQVTVSS	low polyreactivity
QVQLVESGGGLVQAGGSLRLSCAASGLTFTGNAMGWYRQAPGKEREFVAAIRWSAGSTYYADSVKGRFTISRDNAKNTVYLQMNSLKPEDTAVYYCNAALNVSGHYPNDYWGQGTQVNVSS	low polyreactivity
QVQLVESGGGLVQAGGSLRLSCAASGLTFTKNVMGWYRQAPGKERELVAVISRSGGSTYYADSVKGRFTISRDNAKNTVYLQMNSLKPEDTAVYYCNVKGPGPSRGNYWGQGTQVTVSS	low polyreactivity
QVQLVESGGGLVQAGGSLRLSCAASGLTFTPNAMGWYRQAPGKEREFVAAITWRGGRTYYADSVKGRFTISRDNAKNTVYLQMNSLKPEDTAVYYCAVTYRPTYQLDYWGQGTQVTVSS	high polyreactivity
QVQLVESGGGLVQAGGSLRLSCAASGLTFTRYAMGWYIQAPGKEREMVAAISKNGGSTYYADSVKGRFTISRDNAKNTVYLQMNSLKPEDTAVYYCAARRSTSYPAGYDYRGQGTQVTVSS	high polyreactivity
QVQLVESGGGLVQAGGSLRLSCAASGLTFTSYAMGWYRQAPGKERELVAAIDWSGGRTYYADSVKGRFTISRDNAKNTVYLQMNSLKPEDTAVYYCAAYSRNRSLRFNYWGQGTQVTVSS	high polyreactivity
QVQLVESGGGLVQAGGSLRLSCAASGLTFTSYAMGWYRQAPGKERELVAAITAGGVSTYYADSEKGRFTISRDNAKNTVYLQMNSLKPEDTAVYYCAVDPPYSNPITINEDYWGQGTQVTVSS	low polyreactivity
QVQLVESGGGLVQAGGSLRLSCAASGLTFTTYTMGWYRQAPGKERELVAAISSRGGSTYYADSVKGRFTISRDNAKNTVYLQMNRLKPEDTAVYYCNAPRPHRMDWGQGTQVTVSS	high polyreactivity
QVQLVESGGGLVQAGGSLRLSCAASGLTFTTYTMGWYRQAPGKERELVAAISSRGGSTYYADSVKGRFTISRDNAKNTVYLQMNSLKPEDTAVYYFNAPRPHRMDWGQGTQVTVSS	high polyreactivity
QVQLVESGGGLVQAGGSLRLSCAASGLTFVFYAMGWYRQAPGKETELVAAISSSGGSTNYADSVKGRFTISRDNEKNTVYLQMKSLKPEDTAVYYCAATPYYSQYDYWGQGTQVTVSS	high polyreactivity
QVQLVESGGGLVQAGGSLRLSCAASGLTFVNYAMGWYRQAPGKERELVATISKTGGSTYYADSVKGRFTISRDNAKNTVYLQMNSLKPEDTAVYYCAVDAFYYKWYDYWGQGTQVTVSS	high polyreactivity
QVQLVESGGGLVQAGGSLRLSCAASGLTFVPYAMGWSRQAPGNERELFAAITWSGGSTYYADSVKGRFTISRDNAKNTVYLQMNSLKQEDTAVYYCAADFLLSTSTEYYYWGHGTQVTVSS	high polyreactivity
QVQLVESGGGLVQAGGSLRLSCAASGLTFVYYAMGWYRQAPGKERELVAAISSGGRTYYADSVKGRFTISRDNAKNTVYLQMNSLKPEDTGVYYCAAYGGTHYTYRYDYWGQGTQVNVSS	high polyreactivity
QVQLVESGGGLVQAGGSLRLSCAASGLTFWDYAMGWYRQAPGKERELVAGINTRGTSTYYADSVKGRFTISRDNAKNTVYLQMNSLKPEDTAVYYCAAEFFGYWYGIQYDYWGQGTQVTVSS	high polyreactivity
QVQLVESGGGLVQAGGSLRLSCAASGLTFWWYAMGWYRQAPGKERELVAAISSSGGSTYYADSVKGRFTISRDIAKNTVYLQMNSLKPEDTAVYYCAVASWDNYWDPYGYWGQGTQVTVSS	low polyreactivity
QVQLVESGGGLVQAGGSLRLSCAASGLTFWWYAMGWYRQAPGKQRELVAGITGGGSTSYADSVKGRFTISRDNAKNTVYLQMNSLKPEDTAVYYCAASPYNGQRTWYKYFFLGDYWGQGTQVTVSS	high polyreactivity
QVQLVESGGGLVQAGGSLRLSCAASGLTFWYYVMGWYRQAPGKERELVAAINIGGSTKYAYSVKGRFTISRDNAKNTVYLQMNSLKPEDTAVYYCAAQYYYTGTRSIRSFDYWGQGTQVTVSS	low polyreactivity
QVQLVESGGGLVQAGGSLRLSCAASGLTFYAYAMGWYRQAPGKERELVAAISWTGGRTYYADSVKGRFTISRDNAKNTVYLQMNSLKPEDTAVYYCAAEVFTTGSFRRYDYWGQGTQVTVSS	high polyreactivity
QVQLVESGGGLVQAGGSLRLSCAASGLTFYGNAMGWYRQAPGKERELVAAISSSGGTTYYADSVKGRFTISRDNAKNTVYLQMNSLKPEDTAVYYCAARPSGGYESTRTRDYWGQGTQVTVSS	low polyreactivity
QVQLVESGGGLVQAGGSLRLSCAASGLTFYGYGMGWYRQAPGKERELVASITSGGNTYYADSVKGRFTISRDNAKNTVYLQMNSLKPEDTAVYYCAVTAIALYYSSGYYWGQGTQVTVSS	low polyreactivity
